Test results published in the supplement of paper PMC11246515.
± gives the standard deviation of the averaged measurements.

Experiment: total protein half-life in vivo (active degradation + dilution); higher = more stable protein
[1] = E. coli NCM3722 delta-clpP delta-lon delta-hslV, growth: N-lim chemostat, doubling time 6 h
[2] = E. coli NCM3722 delta-clpP, growth: N-lim chemostat, doubling time 6 h
[3] = E. coli NCM3722 delta-lon, growth: N-lim chemostat, doubling time 6 h
[4] = E. coli NCM3722 delta-smpB, growth: N-lim chemostat, doubling time 6 h
[5] = wild type E. coli NCM3722, growth: C-lim chemostat, doubling time 3 h
[6] = wild type E. coli NCM3722, growth: C-lim chemostat, doubling time 6 h
[7] = wild type E. coli NCM3722, growth: C-lim chemostat, doubling time 12 h
[8] = wild type E. coli NCM3722, growth: N-lim chemostat, doubling time 6 h
[9] = wild type E. coli NCM3722, growth: N-lim chemostat, doubling time 12 h
[10] = wild type E. coli NCM3722, growth: P-lim chemostat, doubling time 6 h
[11] = E. coli NCM3722 delta-hslV, growth: N-lim chemostat, doubling time 6 h
[12] = wild type E. coli NCM3722, growth: P-lim chemostat, doubling time 12 h

| Sequence | total protein half-life in vivo [1] [h] | total protein half-life in vivo [2] [h] | total protein half-life in vivo [3] [h] | total protein half-life in vivo [4] [h] | total protein half-life in vivo [5] [h] | total protein half-life in vivo [6] [h] | total protein half-life in vivo [7] [h] | total protein half-life in vivo [8] [h] | total protein half-life in vivo [9] [h] | total protein half-life in vivo [10] [h] | total protein half-life in vivo [11] [h] | total protein half-life in vivo [12] [h] |
| --- | --- | --- | --- | --- | --- | --- | --- | --- | --- | --- | --- | --- |
| MKNCVIVSAVRTAIGSFNGSLASTSAIDLGATVIKAAIERAKIDSQHVDEVIMGNVLQAGLGQNPARQALLKSGLAETVCGFTVNKVCGSGLKSVALAAQAIQAGQAQSIVAGGMENMSLAPYLLDAKARSGYRLGDGQVYDVILRDGLMCATHGYHMGITAENVAKEYGITREMQDELALHSQRKAAAAIESGAFTAEIVPVNVVTRKKTFVFSQDEFPKANSTAEALGALRPAFDKAGTVTAGNASGINDGAAALVIMEESAALAAGLTPLARIKSYASGGVPPALMGMGPVPATQKALQLAGLQLADIDLIEANEAFAAQFLAVGKNLGFDSEKVNVNGGAIALGHPIGASGARILVTLLHAMQARDKTLGLATLCIGGGQGIAMVIERLN | 4.78 ± 0.92 | 3.36 | 2.93 ± 0.073 | 2.808 ± 0.0077 | 3.34 | 5.45 ± 1.1 | 8 | 2.92 ± 0.27 | 3.67 ± 0.067 | 5.43 |  |  |
| MAATKPAFNPPGKKGDIIFSVLVKLAALIVLLMLGGIIVSLIISSWPSIQKFGLAFLWTKEWDAPNDIYGALVPIYGTLVTSFIALLIAVPVSFGIALFLTELAPGWLKRPLGIAIELLAAIPSIVYGMWGLFIFAPLFAVYFQEPVGNIMSNIPIVGALFSGPAFGIGILAAGVILAIMIIPYIAAVMRDVFEQTPVMMKESAYGIGCTTWEVIWRIVLPFTKNGVIGGIMLGLGRALGETMAVTFIIGNTYQLDSASLYMPGNSITSALANEFAEAESGLHVAALMELGLILFVITFIVLAASKFMIMRLAKNEGAR [P0AGH8] | 5.52 ± 1 |  | 5.31 ± 1.4 | 5.08 ± 0.47 |  |  | 15.4 | 3.42 | 12.1 | 5.49 ± 0.25 | 5.62 ± 0.46 | 11.4 ± 0.52 |
| MDQALLDGGYRCYTGEKIDVYFNTAICQHSGNCVRGNGKLFNLKRKPWIMPDEVDVATVVKVIDTCPSGALKYRHK [P0AF59] | 5.57 ± 0.28 | 5.03 | 6.02 ± 0.5 | 4.29 ± 0.66 | 1.83 |  | 8.02 | 5.6 ± 1 | 8.71 ± 1.1 |  | 5.21 ± 0.78 | 10.5 ± 0.21 |
| MIKTTPHKIVILMGILLSPSVFATDINVEFTATVKATTCNITLTGNNVTNDGNNNYTLRIPKMGLDKIANKTTESQADFKLVASGCSSGISWIDTTLTGNASSSSPKLIIPQSGDSSSTTSNIGMGFKKRTTDDATFLKPNSAEKIRWSTDEMQPDKGLEMTVALRETDAGQGVPGNFRALATFNFIYQ |  |  |  |  |  |  | 10.5 |  |  |  |  |  |
| MAIKLEIKNLYKIFGEHPQRAFKYIEQGLSKEQILEKTGLSLGVKDASLAIEEGEIFVIMGLSGSGKSTMVRLLNRLIEPTRGQVLIDGVDIAKISDAELREVRRKKIAMVFQSFALMPHMTVLDNTAFGMELAGINAEERREKALDALRQVGLENYAHSYPDELSGGMRQRVGLARALAINPDILLMDEAFSALDPLIRTEMQDELVKLQAKHQRTIVFISHDLDEAMRIGDRIAIMQNGEVVQVGTPDEILNNPANDYVRTFFRGVDISQVFSAKDIARRTPNGLIRKTPGFGPRSALKLLQDEDREYGYVIERGNKFVGAVSIDSLKTALTQQQGLDAALIDAPLAVDAQTPLSELLSHVGQAPCAVPVVDEDQQYVGIISKGMLLRALDREGVNNG | 5.58 ± 1.6 |  |  |  | 1.16 |  |  | 5.28 |  |  |  |  |
| MPKRTDIKSILILGAGPIVIGQACEFDYSGAQACKALREEGYRVILVNSNPATIMTDPEMADATYIEPIHWEVVRKIIEKERPDAVLPTMGGQTALNCALELERQGVLEEFGVTMIGATADAIDKAEDRRRFDVAMKKIGLETARSGIAHTMEEALAVAADVGFPCIIRPSFTMGGSGGGIAYNREEFEEICARGLDLSPTKELLIDESLIGWKEYEMEVVRDKNDNCIIVCSIENFDAMGIHTGDSITVAPAQTLTDKEYQIMRNASMAVLREIGVETGGSNVQFAVNPKNGRLIVIEMNPRVSRSSALASKATGFPIAKVAAKLAVGYTLDELMNDITGGRTPASFEPSIDYVVTKIPRFNFEKFAGANDRLTTQMKSVGEVMAIGRTQQESLQKALRGLEVGATGFDPKVSLDDPEALTKIRRELKDAGADRIWYIADAFRAGLSVDGVFNLTNIDRWFLVQIEELVRLEEKVAEVGITGLNADFLRQLKRKGFADARLAKLAGVREAEIRKLRDQYDLHPVYKRVDTCAAEFATDTAYMYSTYEEECEANPSTDREKIMVLGGGPNRIGQGIEFDYCCVHASLALREDGYETIMVNCNPETVSTDYDTSDRLYFEPVTLEDVLEIVRIEKPKGVIVQYGGQTPLKLARALEAAGVPVIGTSPDAIDRAEDRERFQHAVERLKLKQPANATVTAIEMAVEKAKEIGYPLVVRPSYVLGGRAMEIVYDEADLRRYFQTAVSVSNDAPVLLDHFLDDAVEVDVDAICDGEMVLIGGIMEHIEQAGVHSGDSACSLPAYTLSQEIQDVMRQQVQKLAFELQVRGLMNVQFAVKNNEVYLIEVNPRAARTVPFVSKATGVPLAKVAARVMAGKSLAEQGVTKEVIPPYYSVKEVVLPFNKFPGVDPLLGPEMRSTGEVMGVGRTFAEAFAKAQLGSNSTMKKHGRALLSVREGDKERVVDLAAKLLKQGFELDATHGTAIVLGEAGINPRLVNKVHEGRPHIQDRIKNGEYTYIINTTSGRRAIEDSRVIRRSALQYKVHYDTTLNGGFATAMALNADATEKVISVQEMHAQIK | 5.02 ± 0.092 | 4.45 ± 0.4 | 5 ± 0.33 | 4.81 ± 0.32 | 3.11 ± 0.25 | 5.75 ± 0.28 | 10.6 ± 0.13 | 4.65 ± 0.3 | 8.22 ± 0.41 | 6.2 ± 0.28 | 4.581 ± 0.016 | 12.6 ± 0.28 |
| MKIKSIRKAVLLLALLTSTSFAAGKNVNVEFRKGHSSAQYSGEIKGYDYDTYTFYAKKGQKVHVSISNEGADTYLFGPGIDDSVDLSRYSPELDSHGQYSLPASGKYELRVLQTRNDARKNKTKKYNVDIQIK | 5.26 ± 0.85 | 6.18 ± 1.5 | 5.92 ± 0.064 | 5.41 ± 2.6 | 3.4 ± 0.059 | 5.32 ± 0.57 | 9.98 ± 4 | 6.12 ± 0.28 | 11 ± 4.1 | 4.9 ± 0.38 | 6.58 ± 0.55 | 11.1 ± 0.15 |
| MPNIVLSRIDERLIHGQVGVQWVGFAGANLVLVANDEVAEDPVQQNLMEMVLAEGIAVRFWTLQKVIDNIHRAADRQKILLVCKTPADFLTLVKGGVPVNRINVGNMHYANGKQQIAKTVSVDAGDIAAFNDLKTAGVECFVQGVPTEPAVDLFKLL |  |  |  |  | 3.26 | 5.07 ± 0.6 | 8.17 |  |  |  |  |  |
| MITRDFLMNADCKTAFGAIEESLLWSAEQRAASLAATLACRPDEGPVWIFGYGSLMWNPALEFTESCTGTLVGWHRAFCLRLTAGRGTAHQPGRMLALKEGGRTTGVAYRLPEETLEQELTLLWKREMITGCYLPTWCQLDLDDGRTVNAIVFIMDPRHPEYESDTRAQVIAPLIAAASGPLGTNAQYLFSLEQELIKLGMQDDGLNDLLVSVKKLLAENFPDGVLRPGFA | 5.67 ± 0.14 |  |  |  |  |  |  |  |  |  |  |  |
| MMLSATQPLSEKLPAHGCRHVAIIMDGNGRWAKKQGKIRAFGHKAGAKSVRRAVSFAANNGIEALTLYAFSSENWNRPAQEVSALMELFVWALDSEVKSLHRHNVRLRIIGDTSRFNSRLQERIRKSEALTAGNTGLTLNIAANYGGRWDIVQGVRQLAEKVQQGNLQPDQIDEEMLNQHVCMHELAPVDLVIRTGGEHRISNFLLWQIAYAELYFTDVLWPDFDEQDFEGALNAFANRERRFGGTEPGDETA | 4.31 ± 0.33 | 4.73 ± 0.53 | 3.15 ± 0.76 | 3.01 ± 0.68 | 2.21 ± 0.11 | 3.73 ± 0.41 | 5.97 | 3.18 ± 0.091 | 6.55 | 3.94 ± 0.13 | 2.9 ± 0.15 | 5.49 ± 2.1 |
| MNLDDIINSMMPEVYQRLSTAVELGKWPDGVALTEEQKENCLQLVMLWQARHNIEAQHMTIDTNGQMVMKSKQQLKEDFGISAKPIAMFK | 4.42 ± 2.1 | 0.712 |  |  | 0.231 ± 0.0036 | 0.237 ± 0.16 | 0.116 ± 0.16 | 0.172 |  | 0.371 ± 0.17 |  | 1.17 ± 1.3 |
| MSDSNSRLVYSTETGRIDEPKAAPVRPKGDGVVRIQRQTSGRKGKGVCLITGVDLDDAELTKLAAELKKKCGCGGAVKDGVIEIQGDKRDLLKSLLEAKGMKVKLAGG | 5.12 ± 0.14 | 4.16 | 4.11 ± 0.81 | 3.04 ± 0.3 | 2.76 ± 0.65 | 4.11 ± 0.38 | 5.29 ± 0.51 | 3.15 | 5.059 ± 0.042 | 3.05 | 3.29 ± 0.22 | 5.7 ± 0.6 |
| MKKIIALMLFLTFFAHANDSEPGSQYLKAAEAGDRRAQYFLADSWFSSGDLSKAEYWAQKAADSGDADACALLAQIKITNPVSLDYPQAKVLAEKAAQAGSKEGEVTLAHILVNTQAGKPDYPKAISLLENASEDLENDSAVDAQMLLGLIYANGVGIKADDDKATWYFKRSSAISRTGYSEYWAGMMFLNGEEGFIEKNKQKALHWLNLSCMEGFDTGCEEFEKLTNG [P0AF56] | 2.83 ± 0.045 | 2.24 ± 1.1 | 1.32 | 0.675 | 1.04 ± 0.074 | 1.62 ± 0.75 | 2.73 ± 2.1 | 1.12 | 0.655 | 1.33 ± 0.63 |  | 1.48 ± 0.49 |
